Data taken from patent US20150098945A1 (Daiichi Sankyo, published 2015).

Biological target: T1, human ROBO3 (pCI-hROBO3-transfected HEK293 cells) (human, UniProt Q96MS0 21-1386)
T1 sequence: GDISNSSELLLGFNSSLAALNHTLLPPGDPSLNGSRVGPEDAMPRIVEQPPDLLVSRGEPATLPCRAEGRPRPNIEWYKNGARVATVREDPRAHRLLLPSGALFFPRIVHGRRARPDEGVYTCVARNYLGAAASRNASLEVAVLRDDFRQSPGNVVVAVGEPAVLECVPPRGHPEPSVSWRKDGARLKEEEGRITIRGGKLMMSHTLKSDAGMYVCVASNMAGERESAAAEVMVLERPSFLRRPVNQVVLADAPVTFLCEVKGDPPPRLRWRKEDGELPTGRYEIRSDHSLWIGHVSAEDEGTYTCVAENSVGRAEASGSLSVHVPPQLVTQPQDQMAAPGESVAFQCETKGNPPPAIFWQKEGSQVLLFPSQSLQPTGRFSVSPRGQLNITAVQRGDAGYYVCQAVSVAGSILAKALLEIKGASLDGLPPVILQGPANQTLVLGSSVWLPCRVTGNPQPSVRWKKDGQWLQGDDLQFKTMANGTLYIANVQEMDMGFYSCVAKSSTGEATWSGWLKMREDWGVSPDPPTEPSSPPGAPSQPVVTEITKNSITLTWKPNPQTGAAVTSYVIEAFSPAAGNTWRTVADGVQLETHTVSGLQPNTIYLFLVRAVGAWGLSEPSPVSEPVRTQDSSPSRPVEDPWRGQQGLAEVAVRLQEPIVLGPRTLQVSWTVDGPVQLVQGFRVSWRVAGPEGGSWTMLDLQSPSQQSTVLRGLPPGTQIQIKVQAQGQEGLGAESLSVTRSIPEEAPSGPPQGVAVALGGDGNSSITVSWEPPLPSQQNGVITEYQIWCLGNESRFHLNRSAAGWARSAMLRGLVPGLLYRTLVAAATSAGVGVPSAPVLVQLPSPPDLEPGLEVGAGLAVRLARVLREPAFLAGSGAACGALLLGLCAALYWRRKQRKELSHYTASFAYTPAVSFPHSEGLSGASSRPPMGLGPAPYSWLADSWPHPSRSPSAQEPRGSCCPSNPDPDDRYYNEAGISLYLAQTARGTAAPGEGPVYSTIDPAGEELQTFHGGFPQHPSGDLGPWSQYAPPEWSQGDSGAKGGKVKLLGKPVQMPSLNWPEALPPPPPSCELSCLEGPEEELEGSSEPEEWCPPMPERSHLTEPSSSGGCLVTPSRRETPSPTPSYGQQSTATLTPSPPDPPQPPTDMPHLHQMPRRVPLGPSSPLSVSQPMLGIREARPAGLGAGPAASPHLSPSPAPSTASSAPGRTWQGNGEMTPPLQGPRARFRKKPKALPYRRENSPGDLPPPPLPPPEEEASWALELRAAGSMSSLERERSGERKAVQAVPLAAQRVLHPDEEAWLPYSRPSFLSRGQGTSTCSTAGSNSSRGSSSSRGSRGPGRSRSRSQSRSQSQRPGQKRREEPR
Assay: flow cytometry, HEK293 cells transfected with pCI-hROBO3, anti-mouse IgG FITC; control histogram IgG
Protocol: HEK293 cells were inoculated at a concentration of 1.2×10⁶ cells/dish or 1.5×10⁶ cells/dish to a 60-mm dish (manufactured by Corning Inc.) and cultured overnight in a DMEM medium containing 10% FBS at 37° C. under 5% CO₂ conditions. On the next day, the HEK293 cells were transfected with pCI-hROBO4, pCI-FLAG-hROBO1, pCI-hROBO2, or pCI-hROBO3 using FuGENE6 Transfection Reagent and further cultured overnight at 37° C. under 5% CO₂ conditions. On the next day, the expression vector-transfected cells were treated with TrypLE Express (manufactured by Life Technologies Corp.), washed with PBS containing 5% FBS, and then suspended in PBS containing 5% FBS. The obtained cell suspension was used in flow cytometry analysis.
Each cell suspension prepared in 4)-4-1 was centrifuged, and the supernatant was removed. […] Data was analyzed using Flowjo. The histogram of FITC fluorescence intensity was prepared. The antibody was determined to bind in a specific manner when the histogram of MAb1 was shifted to a stronger fluorescence intensity region compared with the histogram of the negative control Mouse IgG1 or Mouse IgG2a. […]

binding result: no binding (tested: 10 µg/mL)
B1: anti-ROBO4 mouse monoclonal antibody MAb1 (antibody, mouse IgG1, V domains shown)
VH: EVQLVESGGGLVKPGGSLKLSCAASGFTFSTYAMSWVRQTPEKRLEWVATISNGGTYTYYPDSVKGRFTISRDNAENTLYLQMSSLRSEDTAMYFCARLIYYDYLDYWGHGTTLTVSS
VL: DAVMTQTPLSLPVSLGDQASISCRSSQSLENSNGNTYLNWYFQKPGQSPQLLIYRVSNRFSGVLDRFSGSGSGTDFTLKISRVEAEDFGVYFCLQVTHVPWTFGGGTKLEIKR
notes: Mouse IgG1 (gamma1), kappa light chain, purified from hybridoma supernatant; also called parent antibody MAb1
